{"source": "patent US20250042987A1", "about": "(BEIJING DONGFANG BIOTECH, published 2025)", "binders": {"B1": {"name": "humanized anti-TSLP monoclonal antibody HA-II (antibody, human IgG1, kappa, L234A L235A, V domains shown)", "VH": "QVQLVQSGAEVKKPGASVKVSCKASGYTFTSYWMHWVRQAPGQGLEWIGLIDPSDSDTTYNQKFKGRATLTVDTSTSTAYMELSSLRSEDTAVYYCSRSLDGYFDHWGQGTLVTVSS", "VL": "DIVMTQSPSSLSASVGDRVTITCRASENIYSYLAWYQQKPGKAPKLLVYNARTLAEGVPSRFSGSGSGTDFTLTISSLQPEDFATYYCQHHYGTPWTFGGGTKVEIKR"}, "B2": {"name": "humanized anti-TSLP monoclonal antibody HA-III (antibody, human IgG1, kappa, L234A L235A)", "heavy": "not shown", "light": "DIQMTQSPSSLSASVGDRVTITCRASENIYSYLAWYQQKPGKAPKLLVYNARTLAEGVPSRFSGSGSGTDFTLTISSLQPEDFATYYCQHHYGTPWTFGGGTKVEIKRTVAAPSVFIFPPSDEQLKSGTASVVCLLNNFYPREAKVQWKVDNALQSGNSQESVTEQDSKDSTYSLSSTLTLSKADYEKHKVYACEVTHQGLSSPVTKSFNRGEC"}, "B3": {"name": "humanized anti-TSLP monoclonal antibody HA-I (antibody, human IgG1, kappa, L234A L235A, V domains shown)", "VH": "QVQLVQSGAEVKKPGASVKVSCKASGYTFTSYWMHWVRQAPGQGLEWIGLIDPSDSDTTYNQKFKGRATLTVDTSTSTAYMELSSLRSEDTAVYYCSRSLDGYFDHWGQGTLVTVSS", "VL": "DIVMTQSPSSLSASVGDRVTITCRASENIYSYLAWYQQKPGKSPKLLVYNARTLAEGVPSRFSGSGSGTDFTLTISSLQPEDFATYYCQHHYGTPWTFGGGTKVEIKR", "notes": "also called HA-1; EB070"}, "B4": {"name": "humanized anti-TSLP monoclonal antibody HA-IV (antibody, human IgG1, kappa, L234A L235A)", "heavy": "not shown", "light": "DIVMTQSPSSLSASVGDRVTITCRASENIYSYLAWYQQKPGKAPKLLVYNARTLAEGVPSRFSGSGSGTDFTLTISSLQPEDFATYYCQHHYGTPWTFGGGTKVEIKRTVAAPSVFIFPPSDEQLKSGTASVVCLLNNFYPREAKVQWKVDNALQSGNSQESVTEQDSKDSTYSLSSTLTLSKADYEKHKVYACEVTHQGLSSPVTKSFNRGEC"}}}
{"molecular_target": "T1, mouse TSLP-His (Sino Biological, product code 51005-M08H) (mouse, UniProt Q9JIE6 20-140)", "T1 construct": "Bought reagent; also called TSLP (Mouse); not shown: His tag", "T1 sequence (looked up)": "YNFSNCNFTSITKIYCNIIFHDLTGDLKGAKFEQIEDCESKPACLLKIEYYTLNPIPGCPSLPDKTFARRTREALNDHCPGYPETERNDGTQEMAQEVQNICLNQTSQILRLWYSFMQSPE", "experiment": "ELISA, mouse TSLP-His coated"}
{"binder": "B1", "binding result": "no binding (tested: 16 µg/ml (highest concentration))"}
{"binder": "B2", "binding result": "no binding (tested: 16 µg/ml (highest concentration))"}
{"binder": "B3", "binding result": "no binding (tested: 16 µg/ml (highest concentration))"}
{"binder": "B4", "binding result": "no binding (tested: 16 µg/ml (highest concentration))"}
